The source of these data is patent publication US20090312236A1.

The test has as its target human IGF-1 receptor (human) (UniProt P08069). Description: competitive radioligand SPA, [125I]IGF-1, hIGF-1R membranes.

Bounds are passed on as bounds.

“insulin lispro (ligand; other documents disagree on this pair)” returned a Ki of over 75 nM.

As usually defined, the Ki is the equilibrium dissociation constant of an inhibitor or competing ligand from its target. Read a high Ki as a looser hold on the target.
